PMC3907796

Molecular target: BD-G72(95-153) (UniProt P59103)
Test: two-hybrid; β-galactosidase activity of AH109 transformants grown in SD/-2 broth at 30 °C, normalised to yeast with the AD and BD tags alone

Sequence of BD-G72(95-153) (P59103 95-153): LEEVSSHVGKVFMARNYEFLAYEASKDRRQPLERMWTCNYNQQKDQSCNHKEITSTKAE

## AD-DAO (D-amino acid oxidase N-terminally tagged with the activation domain) (from UniProt P14920 1-347) (enzyme)
  β-galactosidase activity as percent of AD-DAO/BD-G72: 38%
  β-galactosidase activity relative to the BD/AD tag baseline: 1.81 fold
